Test results reported in doi:10.1101/2022.10.09.511488 (bioRxiv, 2022).

Columns and labels:
[1] = biological target: Huc protomer (HucSL heterodimer) (Mycobacterium smegmatis mc2155); test: cryo-EM structure
cryo-EM structure = biological target: the molecule itself; test: cryo-EM structure

Molecule	stoichiometry N [1]	stoichiometry N (cryo-EM structure)
Huc protomer (HucSL heterodimer) (complex)	2	–
HucM (MSMEG_2261) (natural protein) MASNGHSAGQNAIDELPDISPVDGIRRRLDDPQVAEALNSLLDHADLLAVLVKGLDGFVRRGDDIANNLTSAIGELKALNAADTPIPALAALKDVDLAGLANSLATLSGGLVKATPALNAVLDSLTDQRGAEVLSALGDALVAARTSAPPAPRGVRGMWKTLRAAAKDPDVGRGVSYLIEVARVFGSKV	–	4
